# Test results reported in patent US20070071744A1 (published 2007).
# Ends that are not written are not given here.
# T1: peptide 25 (human)
# T1 peptide: Ac-QGPPGVDLYRLEK
# T2: peptide 23 (human)
# T2 peptide: Ac-TLRCQGPPGVDLY
# T3: peptide 97 (human)
# T3 peptide: Ac-APSDPLELVVTGT
# T4: peptide 71 (human)
# T4 peptide: Ac-DQFALYKEGDPAP
# T5: peptide 21 (human)
# T5 peptide: Ac-EKPVTLRCQGPPG
# T6: peptide 76 (human)
# T6 peptide: Ac-PAPYKNPERWYRA
# T7: peptide 102 (human)
# T7 peptide: Ac-TGTSVTPSRLPTE
# T8: peptide 49 (human)
# T8 peptide: Ac-SLPSDQLELVATG
# T9: peptide 51 (human)
# T9 peptide: Ac-DQLELVATGVFAK
# T10: peptide 16 (human)
# T10 peptide: Ac-QALPSSLVPLEKP
# T11: peptide 20 (human)
# T11 peptide: Ac-PLEKPVTLRCQGP
# T12: peptide 107 (human)
# T12 peptide: Ac-PTEPPSSVAEFSE
# T13: peptide 43 (human)
# T13 peptide: Ac-RYRCSYQNGSLWS
# T14: peptide 74 (human)
# T14 peptide: Ac-KEGDPAPYKNPER
# T15: peptide 82 (human)
# T15 peptide: Ac-ASFPIITVTAAHS
# T16: peptide 64 (human)
# T16 peptide: Ac-GGDVTLQCQTRYG
# T17: peptide 6 (human)
# T17 peptide: Ac-LGLCLGRVPAQSG
# T18: peptide 110 (human)
# T18 peptide: Ac-SVAEFSEATAELT
# T19: peptide 29 (human)
# T19 peptide: Ac-YRLEKLSSSRYQD
# T20: peptide 36 (human)
# T20 peptide: Ac-AVLFIPAMKRSLA
# T21: peptide 56 (human)
# T21 peptide: Ac-FAKPSLSAQPGPA
# T22: peptide 72 (human)
# T22 peptide: Ac-FALYKEGDPAPYK
# T23: peptide 65 (human)
# T23 peptide: Ac-DVTLQCQTRYGFD
# T24: peptide 123 (human)
# T24 peptide: Ac-RSITTSPKESDSP
# T25: peptide 54 (human)
# T25 peptide: Ac-ATGVFAKPSLSAQ
# T26: peptide 109 (human)
# T26 peptide: Ac-PSSVAEFSEATAE
# T27: peptide 22 (human)
# T27 peptide: Ac-PVTLRCQGPPGVD
# T28: peptide 85 (human)
# T28 peptide: Ac-TVTAAHSGTYRCY
# T29: peptide 39 (human)
# T29 peptide: Ac-AMKRSLAGRYRCS
# T30: peptide 130 (human)
# T30 peptide: Ac-GPARQYYTKGNGG
# T31: peptide 59 (human)
# T31 peptide: Ac-SAQPGPAVSSGGD
# T32: peptide 78 (human)
# T32 peptide: Ac-KNPERWYRASFPI
# T33: peptide 62 (human)
# T33 peptide: Ac-AVSSGGDVTLQCQ
# T34: peptide 111 (human)
# T34 peptide: Ac-AEFSEATAELTVS
# T35: peptide 15 (human)
# T35 construct: also called SLQALPSSLVPLE
# T35 peptide: Ac-SLQALPSSLVPLE
# T36: peptide 46 (human)
# T36 peptide: Ac-QNGSLWSLPSDQL
# T37: peptide 31 (human)
# T37 peptide: Ac-KLSSSRYQDQAVL
# T38: peptide 126 (human)
# T38 peptide: Ac-PKESDSPAGPARQ
# T39: peptide 66 (human)
# T39 peptide: Ac-TLQCQTRYGFDQF
# T40: peptide 106 (human)
# T40 peptide: Ac-RLPTEPPSSVAEF
# T41: peptide 10 (human)
# T41 peptide: Ac-PAQSGPLPKPSLQ
# B1: monoclonal antibody hGP 5C4 (antibody, V domains shown)
# VH: EVKLQESGGGLVQPGRSLKLSCTASGFTFSDYFMSWVRQAPTRGLEWVASISSGGASAYWRDSVKGRFTISRDNAKSALYLQMDSLRSEDTATYFCARGELDFDYWGQGVMVAVSS
# VL: ADPNSTLLSASVGDRVTLNCTASQNVYKNLAWYQQKLGEAPRLLLYSANSQTGIPSRFSGSGSGPDFTLTISSLQPEDVASYFCQQYYSGNTFGAGTKLELKR
# notes: Rat hybridoma antibody (Lou/C rats), heavy chain gamma 2a, light chain kappa; also called ab 5C4; anti-GPVI mAb 5C4
# Tests used:
# Experiment in all cases: PepSpot peptide array
# peptide 25 = target: T1, peptide 25
# Procedure: (§1) The peptides were synthesized on a cellulose membrane in a stepwise manner resulting in a defined arrangement (peptide array) and are covalently bound to the cellulose membrane. Binding assays were performed directly on the peptide array. In general an antigen peptide array is incubated with blocking buffer for several hours to reduce non-specific binding of proteins or antibodies. It follows the incubation with a primary (antigen peptide-binding) antibody in blocking buffer and an incubation with a horseradish peroxidase (HRP)-labelled secondary antibody, which binds selectively the primary antibody. Alternatively a HRP-labelled primary antibody in blocking buffer can be used.
# (§2) A short T(Tween)-TBS-buffer washing directly after the incubation of the antigen peptide array with the secondary protein or antibody or the HRP-labelled primary antibody followed by the first chemiluminescence experiment is made to get an first overview which antigen peptides do bind the primary antibody. Several buffer washing steps follow (T-TBS- and TBS-buffer) to reduce false positive binding (unspecific antibody binding to the cellulose membrane itself). After these washing steps the final chemiluminescence analysis is performed. The data were analysed with an imaging system showing the signal intensity (Light units, LU) as single measurements for each peptide. In order to evaluate non-specific binding of secondary antibodies, incubations using the secondary antibody have to be performed in the absence of the primary antibody as control incubation.
# peptide 23 = target: T2, peptide 23
# Procedure: as §1, §2
# peptide 97 = target: T3, peptide 97
# Procedure: as §1, §2
# peptide 71 = target: T4, peptide 71
# Procedure: as §1, §2
# peptide 21 = target: T5, peptide 21
# Procedure: as §1, §2
# peptide 76 = target: T6, peptide 76
# Procedure: as §1, §2
# peptide 102 = target: T7, peptide 102
# Procedure: as §1, §2
# peptide 49 = target: T8, peptide 49
# Procedure: as §1, §2
# peptide 51 = target: T9, peptide 51
# Procedure: as §1, §2
# peptide 16 = target: T10, peptide 16
# Procedure: as §1, §2
# peptide 20 = target: T11, peptide 20
# Procedure: as §1, §2
# peptide 107 = target: T12, peptide 107
# Procedure: as §1, §2
# peptide 43 = target: T13, peptide 43
# Procedure: as §1, §2
# peptide 74 = target: T14, peptide 74
# Procedure: as §1, §2
# peptide 82 = target: T15, peptide 82
# Procedure: as §1, §2
# peptide 64 = target: T16, peptide 64
# Procedure: as §1, §2
# peptide 6 = target: T17, peptide 6
# Procedure: as §1, §2
# peptide 110 = target: T18, peptide 110
# Procedure: as §1, §2
# peptide 29 = target: T19, peptide 29
# Procedure: as §1, §2
# peptide 36 = target: T20, peptide 36
# Procedure: as §1, §2
# peptide 56 = target: T21, peptide 56
# Procedure: as §1, §2
# peptide 72 = target: T22, peptide 72
# Procedure: as §1, §2
# peptide 65 = target: T23, peptide 65
# Procedure: as §1, §2
# peptide 123 = target: T24, peptide 123
# Procedure: as §1, §2
# peptide 54 = target: T25, peptide 54
# Procedure: as §1, §2
# peptide 109 = target: T26, peptide 109
# Procedure: as §1, §2
# peptide 22 = target: T27, peptide 22
# Procedure: as §1, §2
# peptide 85 = target: T28, peptide 85
# Procedure: as §1, §2
# peptide 39 = target: T29, peptide 39
# Procedure: as §1, §2
# peptide 130 = target: T30, peptide 130
# Procedure: as §1, §2
# peptide 59 = target: T31, peptide 59
# Procedure: as §1, §2
# peptide 78 = target: T32, peptide 78
# Procedure: as §1, §2
# peptide 62 = target: T33, peptide 62
# Procedure: as §1, §2
# peptide 111 = target: T34, peptide 111
# Procedure: as §1, §2
# peptide 15 = target: T35, peptide 15
# Procedure: as §1, §2
# peptide 46 = target: T36, peptide 46
# Procedure: as §1, §2
# peptide 31 = target: T37, peptide 31
# Procedure: as §1, §2
# peptide 126 = target: T38, peptide 126
# Procedure: as §1, §2
# peptide 66 = target: T39, peptide 66
# Procedure: as §1, §2
# peptide 106 = target: T40, peptide 106
# Procedure: as §1, §2
# peptide 10 = target: T41, peptide 10
# Procedure: as §1, §2
binder,measurement,setting,value
B1,LU (Light Units),peptide 25,56 LU
same,LU (Light Units),peptide 23,76 LU
same,LU (Light Units),peptide 97,147 LU
same,LU (Light Units),peptide 71,29 LU
same,LU (Light Units),peptide 21,128 LU
same,LU (Light Units),peptide 76,78 LU
same,LU (Light Units),peptide 102,160 LU
same,LU (Light Units),peptide 49,91 LU
same,LU (Light Units),peptide 51,73 LU
same,LU (Light Units),peptide 16,80 LU
same,LU (Light Units),peptide 20,175 LU
same,LU (Light Units),peptide 107,71 LU
same,LU (Light Units),peptide 43,64 LU
same,LU (Light Units),peptide 74,8 LU
same,LU (Light Units),peptide 82,149 LU
same,LU (Light Units),peptide 64,6 LU
same,LU (Light Units),peptide 6,91 LU
same,LU (Light Units),peptide 110,71 LU
same,LU (Light Units),peptide 29,169 LU
same,LU (Light Units),peptide 36,125 LU
same,LU (Light Units),peptide 56,759 LU
same,LU (Light Units),peptide 72,35 LU
same,LU (Light Units),peptide 65,26 LU
same,LU (Light Units),peptide 123,91 LU
same,LU (Light Units),peptide 54,1210 LU
same,signal to noise ratio,peptide 54,~4 ratio
same,LU (Light Units),peptide 109,69 LU
same,LU (Light Units),peptide 22,76 LU
same,LU (Light Units),peptide 85,14 LU
same,LU (Light Units),peptide 39,134 LU
same,LU (Light Units),peptide 130,255 LU
same,LU (Light Units),peptide 59,155 LU
same,LU (Light Units),peptide 78,51 LU
same,LU (Light Units),peptide 62,49 LU
same,LU (Light Units),peptide 111,136 LU
same,LU (Light Units),peptide 15,74 LU
same,LU (Light Units),peptide 46,1 LU
same,LU (Light Units),peptide 31,211 LU
same,LU (Light Units),peptide 126,119 LU
same,LU (Light Units),peptide 66,82 LU
same,LU (Light Units),peptide 106,2 LU
same,LU (Light Units),peptide 10,1330 LU
